Assay results from the supplement of paper PMC10567573.

B1: TMEM192 (parent)
chain: LWILHLLLECYIQYHHSKIRNRGY
B2: RAD51 (parent)
chain: APKKELINIKGISEAKADKILAEA

Variants of: B1
Assay: protein stability index of a GFP-peptide fusion (GPS, HEK-293T) (PSI 1-6); higher = more stable
Conditions: c terminus: a fixed tail appended
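Further: lentivirally expressed fusions sorted by FACS into six bins by GFP to DsRed ratio, PSI derived from sequencing read proportions per bin multiplied by bin number.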

Protein stability index, by site and new letter:
W2: A 2.2 | N 2.28 | E 1.73 | T 1.86 | Q 2.66 | M 2.41 | V 3.84 | K 1.94 | F 3.58 | D 1.88 | G 2.73 | S 1.58 | P 1.23 | R 1.63 | H 2.14 | Y 1.25
C10: L 4.54 | D 2.63 | E 1.94 | N 1.79 | Y 2.2 | R 2.03 | F 2.53 | W 1.4 | G 1.18 | S 1.72 | H 1.98 | A 2.09 | P 2.22 | Q 1.95 | K 1.72
I12: M 1.82 | N 2.13 | V 2.27 | G 1.07 | F 3.41 | R 2.8 | K 2.21 | C 1.69 | L 2.53 | D 1.5 | S 1.94 | H 1.95 | W 1.79 | T 2.58 | E 1.88 | Q 1.62
L1: T 3.75 | Y 2.72 | C 2.89 | G 3.04 | Q 3.9 | E 3.02 | K 2.06 | A 3.09 | I 2.1 | M 1.48 | V 2.17 | D 3 | H 4.56
L8: K 2.54 | P 2.11 | R 2.96 | T 2.86 | F 2.57 | S 4.08 | Y 2.71 | I 3.28 | M 2.01 | H 3.75 | D 4.78 | W 2.98
L7: A 3.25 | M 2.51 | E 2.73 | C 2.32 | P 2.33 | R 1.89 | Y 2.48 | V 3.56 | D 3.52 | I 3.46 | N 2 | T 3.78 | F 1.88 | H 2.78 | Q 2.34
Q13: Y 1.85 | P 3 | G 1.39 | A 3.94 | K 2.05 | I 2.75 | N 3.19 | T 1.75 | F 2.88 | L 2 | S 1.9 | H 2.98 | R 2.9 | E 1.8 | D 2.32 | C 2.06 | M 2.08
H5: G 1.48 | Q 1.72 | V 2.22 | C 1.66 | L 2.28 | T 2.61 | P 3.17 | E 2.26 | D 1.05 | K 2.35 | I 2.77
Y11: E 3.19 | F 3.94 | A 2.47 | I 2.47 | N 3.81 | S 3.45 | H 1.77 | T 2.21 | M 2.48 | K 1.93 | Q 2.06 | D 1.25 | G 3.4
L6: A 2.43 | P 1.97 | K 2 | G 1.69 | S 1.62 | D 1.87 | R 1.73 | H 2.37 | N 1.97 | Q 1.99 | I 1.65 | T 2.81 | M 1.65 | Y 1.8 | C 1.67 | E 2.09
E9: Q 2.48 | W 3.27 | V 3.35 | T 1.96 | P 3.73 | N 1.44 | S 2.28 | C 3.27 | H 1.47 | K 3.05 | L 1.7 | D 1.94 | I 2.56 | M 2.33 | F 3.6 | G 2 | R 2.99
Y14: E 2.18 | G 1.41 | D 2.21 | C 2.16 | F 2.96 | A 3.1
I3: R 1.74 | H 2.09 | D 1.71 | A 1.76 | Y 1.62 | C 2.62 | G 1.37 | E 1.68 | V 2.65 | W 1.61 | M 1.35 | Q 1.37 | S 2.32 | K 2.31 | N 2.2 | T 2.34 | L 3.4
L4: S 3.7 | T 1.17 | P 2.85 | H 3.85 | I 2.29 | Y 2.68 | C 2.96 | A 4.26 | F 1.69 | K 2.51 | R 3.42 | M 2.39 | V 1.83

Variants of: B2
Assay: as above
Conditions: c terminus: a fixed tail appended

Protein stability index of substitutions, site by site:
S13: P 4.88 | F 3.73 | C 4.43 | W 4.12
A22: I 4.25 | W 3.58 | Y 3.8 | H 4.52 | C 4.25 | T 3.9 | E 5.28
E14: H 4.58 | T 4.43 | F 3.48 | G 4.8 | W 3.89 | D 4.99
I20: E 5.33 | Q 5.69 | A 5.03 | D 5.47
A24: M 4.34 | Q 5.1 | Y 3.76
L21: E 4.54 | Y 4.58 | K 5.2 | N 5.02 | T 5.25 | S 5.46 | V 4.79 | M 4.98
K16: W 1.64 | I 3.8 | F 3.67 | P 4.84
I12: P 5.15 | C 4.96 | M 4.98 | Q 5.33 | W 4.36
I9: E 5.68 | V 5.1 | Q 4.8 | M 5.06 | P 5.4 | S 4.89 | K 5.22
G11: S 5.46 | Y 4.18 | A 5.12 | W 3.4
E23: M 3.72 | F 3.46 | A 4.18 | H 3.85 | P 4.34
A15: M 4.41 | D 4.64 | F 4.45 | R 4.4
K10: Q 4.46 | M 4.02 | C 4.19 | L 4.29 | F 3.82 | G 5.08
I7: H 5.01 | G 4.8
A1: Q 4.55 | N 4.71 | D 4.31 | S 4.52 | C 4.73 | M 4.06 | K 4.84 | H 4.37 | R 4.63
N8: E 5.07 | R 4.79 | I 3.43 | P 4.88 | L 3.5
A17: I 4.15 | T 4.42 | M 4.43 | K 4.83 | Q 5.11 | G 4.84 | D 5.51 | R 4.62
K4: T 4.69 | A 4.44 | W 3.98 | C 4.68
L6: Y 4.46 | K 5 | S 4.79 | A 5.16 | C 4.97 | G 4.73 | H 5.13
K19: H 4.3 | P 4.48 | F 3.7 | G 4.93 | R 4.26 | T 4.83 | V 4.49
D18: V 4.07 | S 3.53 | C 3.36 | W 2.76 | I 3.62 | G 4.16
K3: I 4.77 | A 4.92 | N 4.58 | Y 3.85 | S 4.55 | R 4.58 | E 4.94 | M 3.95 | T 4.97
E5: D 4.6 | Q 3.96 | V 3.65 | H 4.48 | K 4 | M 3.7
P2: V 4.44 | S 4.36 | H 4.85 | D 5.18 | Y 4.18 | T 4.6 | A 4.93
